Assay results from US20240343806A1.

Target: mouse CTLA4 (mouse) (UniProt P09793)
Test: flow cytometry on CHO-mCTLA4 cells; SSC vs Anti-Human-IgGFc-FITC

Sequence of mouse CTLA4 (mouse) (P09793 36-223 S182T limits assumed): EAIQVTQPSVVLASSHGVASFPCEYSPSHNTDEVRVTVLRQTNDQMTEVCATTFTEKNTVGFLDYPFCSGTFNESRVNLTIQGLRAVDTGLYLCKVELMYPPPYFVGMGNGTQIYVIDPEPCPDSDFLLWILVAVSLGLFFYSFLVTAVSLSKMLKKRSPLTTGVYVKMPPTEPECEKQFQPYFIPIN

% cells in the FITC-positive gate: 0.133%
Substance: NC
